Laboratory results as given in patent US20110064740A1.

Columns and labels:
[1] = biological target: Cell-surface full length amyloid precursor protein (APP) on HEK293T cells transfected with wild type APP DNA (UniProt P05067); experiment: FMAT ABI8200, HEK293T cells transfected with wild type APP, mock subtracted; Experiment 1
[2] = biological target: Cell-surface full length amyloid precursor protein (APP) on HEK293T cells transfected with wild type APP DNA (UniProt P05067); experiment: FMAT ABI8200, HEK293T cells transfected with wild type APP, mock subtracted; Experiment 2

Sequence of Cell-surface full length amyloid precursor protein (APP) on HEK293T cells transfected with wild type APP DNA (P05067 18-770): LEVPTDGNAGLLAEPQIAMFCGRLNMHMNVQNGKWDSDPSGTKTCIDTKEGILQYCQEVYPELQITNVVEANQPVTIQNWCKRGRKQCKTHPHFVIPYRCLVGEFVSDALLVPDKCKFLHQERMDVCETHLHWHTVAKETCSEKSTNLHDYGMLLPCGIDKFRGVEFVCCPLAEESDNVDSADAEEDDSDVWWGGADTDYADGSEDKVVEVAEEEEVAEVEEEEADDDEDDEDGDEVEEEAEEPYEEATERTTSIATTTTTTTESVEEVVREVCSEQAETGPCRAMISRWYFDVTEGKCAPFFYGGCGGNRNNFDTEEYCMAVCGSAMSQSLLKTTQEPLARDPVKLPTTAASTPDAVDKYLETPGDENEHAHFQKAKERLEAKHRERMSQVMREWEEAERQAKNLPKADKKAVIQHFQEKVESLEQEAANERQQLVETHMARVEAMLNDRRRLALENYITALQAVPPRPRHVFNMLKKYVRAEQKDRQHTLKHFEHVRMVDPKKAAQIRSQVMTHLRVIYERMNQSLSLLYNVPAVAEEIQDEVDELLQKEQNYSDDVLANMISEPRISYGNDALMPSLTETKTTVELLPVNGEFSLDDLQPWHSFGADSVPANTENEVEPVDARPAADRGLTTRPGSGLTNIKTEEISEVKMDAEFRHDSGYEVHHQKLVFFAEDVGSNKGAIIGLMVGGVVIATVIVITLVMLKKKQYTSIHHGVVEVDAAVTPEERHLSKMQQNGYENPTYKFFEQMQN

B1: Mouse monoclonal antibody 2E7 (antibody, mouse IgG2a, V domains shown)
VH: EVKLVESGGGLVQPGGSLKLSCAVSGFTFSDNGMAWVRQAPRKGPEWIAFISNLAYSIDYADTVTGRFTISRDNAKNTLYLEMSSLRSEDTAMYYCVSGTWFAYWGQGTLVTVSA
VL: DVVLTQTPLSLPVSLGDQASISCRVSQSLLHSNGYTYLHWYLQKPGQSPKLLIYKVSNRFSGVPDRFSGSGSGTDFTLKISRVEAEDLGVYFCSQTRHVPYTFGGGTKLEIK
With B1 as the binder, how does the % of LN27 binding [1] read?
The % of LN27 binding was 9.9%.

What about the % of LN27 binding [2] of the same binder?
The % of LN27 binding was 2.2%.
